Test results: publication doi:10.1101/2025.03.13.643050

The substances below were run against FG repeat domain of 669 residues with non-charged spacers and 36 FSFG motifs (assay: FG phase partitioning).

Which fold more effective entry than wild-type CLPs does the source give for “conical CLPs of HIV-1 CA G89V, filled with sinGFP4a (complex)” here?
Its fold more effective entry than wild-type CLPs is 4 fold.

Each substance was assayed against prf.GLFG_(52×12), Nup98-type FG domain comprising 52 perfect 12mer GLFG repeat units (assay: FG phase partitioning).

“20 nm T1 pentamer-only capsid spheres of HIV-1 CA G60A, G61P, labelled with ~15% CA-EGFP (complex)” was tested. Which partition coefficient did it give?
Its partition coefficient is 750.

With “40 nm capsid spheres of HIV-1 CA N21C, A22C, labelled with ~15% CA-EGFP (complex)” as the substance, how does the partition coefficient read?
Its partition coefficient is 1000.

EGFP was tested. Which partition coefficient did it give?
The partition coefficient was under 0.1.

Which partition coefficient does the source give for “conical CLPs (capsid-like particles) of HIV-1 CA wild-type, labelled with ~15% CA-EGFP (complex)” here?
The partition coefficient was 1000.

How did the fold reduction of partitioning against wild type turn out when “conical CLPs of HIV-1 CA A88E, filled with sinGFP4a (complex)” was run?
Its fold reduction of partitioning against wild type is over 10 fold.

For “conical CLPs of HIV-1 CA A92E, filled with sinGFP4a (complex)”, which fold reduction of partitioning against wild type is on record?
The fold reduction of partitioning against wild type was over 10 fold.

And the partitioning relative to the wild-type level?
The partitioning relative to the wild-type level was 5%.

For “conical CLPs of HIV-1 CA G94D, filled with sinGFP4a (complex)”, which partitioning relative to the wild-type level is on record?
Its partitioning relative to the wild-type level is 5%.

Which fold reduction of partitioning against wild type does the source give for “conical CLPs of HIV-1 CA H87E, filled with sinGFP4a (complex)” here?
The fold reduction of partitioning against wild type was 15 fold.

Which reduction in partitioning against wild type does the source give for “conical CLPs of HIV-1 CA H87Q, filled with sinGFP4a (complex)” here?
The reduction in partitioning against wild type was 50%.

With “conical CLPs of HIV-1 CA I91E, filled with sinGFP4a (complex)” as the substance, how does the fold reduction of partitioning against wild type read?
Its fold reduction of partitioning against wild type is over 10 fold.

With “conical CLPs of HIV-1 CA M96E, filled with sinGFP4a (complex)” as the substance, how does the fold reduction of partitioning against wild type read?
Its fold reduction of partitioning against wild type is over 10 fold.

With “conical CLPs of HIV-1 CA R132K, filled with sinGFP4a (complex)” as the substance, how does the reduction in partitioning against wild type read?
Its reduction in partitioning against wild type is 50%.

Which fold reduction of partitioning against wild type does the source give for “conical CLPs of HIV-1 CA V86E, filled with sinGFP4a (complex)” here?
Its fold reduction of partitioning against wild type is over 10 fold.

How did the partition coefficient turn out when mCherry was run?
Its partition coefficient is under 0.1.
